From the MegaScale stability set (Tsuboyama et al. 2023)

B1: EEHEE_rd3_1049 (parent)
chain: TTVKLGDIKVTFDNPEKAKKYAQKLAKIYQLTVHVHGDTIHVK

Variants of: B1
Assay: folding stability dG (cDNA display proteolysis); higher = more stable
Settings: PBS, room temperature

Folding stability dG [kcal/mol] of substitutions, site by site:
E16: D 1.96 | F 1.9 | G 1.54 | H 1.8 | I 1.98 | K 1.91 | L 1.92 | M 1.91 | N 1.7 | P 0.35 | Q 1.89 | R 1.82 | S 1.7 | T 1.77 | V 1.85 | W 1.93 | Y 1.9
K17: A 2.39 | C 3.1 | D 2.45 | E 2.32 | F 1.84 | G 1.25 | H 2.02 | I 2 | L 2.17 | M 2.2 | N 1.91 | P 0.853 | Q 2.21 | R 2.02 | S 2.05 | T 2.15 | V 2 | W 1.93 | Y 1.9
A18: C 2.03 | D -0.113 | E -0.325 | F 0.877 | G 0.641 | H 0.152 | I 0.682 | K 0.046 | L 0.902 | M 0.64 | N 0.152 | P -0.013 | Q 0.175 | R 0.343 | S 0.232 | T 0.288 | V 0.492 | W 1.26 | Y 0.624
K19: A 1.9 | C 3.38 | D 0.873 | E 1.47 | F 2.93 | G 0.985 | H 2.14 | I 2.54 | L 3.31 | M 3.54 | N 1.64 | P -0.502 | Q 1.89 | R 2.23 | S 1.49 | T 1.55 | V 1.97 | W 3.16 | Y 2.9
K20: A 2.27 | C 2.63 | D 1.55 | E 2.06 | F 1.8 | G 1.13 | H 1.67 | I 1.97 | L 2.08 | M 2.04 | N 1.66 | P -0.125 | Q 2.02 | R 2.21 | S 1.71 | T 1.57 | V 1.78 | W 2.18 | Y 1.92
Y21: A 0.651 | C 2.04 | D -0.407 | E -0.031 | F 2.36 | G -0.676 | H 0.523 | I 0.827 | K -0.234 | L 1.15 | M 0.885 | N -0.383 | P -0.648 | Q -0.123 | R 0.268 | S -0.364 | T 0.282 | V 0.867 | W 2.22
A22: D -0.543 | E -0.139 | F 1.08 | G 0.327 | H 0.262 | I 1.48 | K 0.531 | L 1.47 | M 1.07 | N 0.115 | P -0.681 | Q 0.388 | R 0.612 | S 0.584 | T 0.394 | V 1.34 | W 1.24 | Y 0.937
Q23: A 2.1 | C 3.24 | D 1.91 | E 2.19 | F 2.14 | G 1.06 | H 1.9 | I 2.03 | K 1.87 | L 2.22 | M 2.25 | N 1.88 | P -0.329 | R 1.94 | S 1.58 | T 1.64 | V 1.73 | W 2.06 | Y 2.29
K24: A 1.98 | D 1.36 | E 1.66 | F 2.87 | G 1.23 | H 2.27 | I 2.28 | L 2.67 | M 2.65 | N 1.58 | P -0.36 | Q 1.86 | R 2.17 | S 1.57 | T 1.83 | V 1.96 | W 3.42 | Y 3.04
